{
  "source": "patent US20240101667A1",
  "about": "“METHODS FOR IDENTIFYING LILRB-BLOCKING ANTIBODIES” (THE BOARD OF REGENTS OF THE UNIVERSITY OF TEXAS SYSTEM, priority 2020, published 2024)",
  "format_in_all_cases": "in vivo, mouse",
  "key": {"[1]": {"test_system": "human AML cells (CD45+/CD33+)", "assay": "M5 AML patient-derived xenograft in NSG mice (primary transplantation)", "from_the_text": "(FIG. 8A) Upper: Schematic of treatment. NSG mice were transplanted with monocytic AML patient peripheral blood sample (depleted red blood cells) and given IgG or #1NA. […] (FIG. 8C) The percentages of human T cells in NSG mice treated as indicated in panel a (n=8 independent mice). (FIG. 8D) Overall survival of the NSG mice treated as indicated in panel a (n=8 independent mice). (FIG. 8E) Schematic of treatment. NSG mice were transplanted with monocytic AML cells (derived from BM of NSG mice engrafted with monocytic AML patient peripheral blood samples) with treatment of IgG or anti-LILRB3 #1 LALAPG. (FIG. 8F) Flow cytometry analyses of LILRB3 expression on human AML cells in the mouse bone marrow. (FIG. 8G) The percentages of human AML cells (CD45^+/CD33^+) in NSG mice after treatment of IgG or #1NA as indicated in panel e. (n=5 independent mice). (FIG. 8H) The percentages of human T cells in NSG mice treated as indicated in panel e (n=5 independent mice). (FIG. 8I), Survival of NSG mice treated as indicated in panel e (n=5 independent mice). The data are presented as mean s.e.m, and p values were calculated by two-tailed t-test except for d and i by log-rank test.\nPrimary human leukemia. The primary human AML samples was obtained from the University of Texas Southwestern Medical Center. […] For primary transplantation, leukemia cells isolated from donor peripheral blood was injected into irradiated NSG mice (200 cGy), and antibody or IgG was introduced intravenously 8 days after injection. For secondary transplantation, human leukemia cells from frozen BM of NSG mice that were engrafted with patient AML cells were transplanted into sublethally-irradiated NSG recipients."}, "[2]": {"test_system": "MLL-AF9 AML cells expressing B3-FL or B3delICD", "assay": "Immuno-competent mice transplanted with MLL-AF9 AML cells expressing B3-FL or B3delICD", "details": "versus control IgG", "from_the_text": "FIGS. 7A-N. Blocking anti-LILRB3 antibody prevents monocytic AML development. (FIG. 7A) Epitope binning of 30 high-affinity IgGs. (FIG. 7B) CFU assay of mouse MLL-AF9 AML cells in the presence of above IgGs (n=3 independent experiments). (FIG. 7C) Binding affinities of the two IgGs from bin #3. (FIG. 7D) Upper: Schematic of treatment. Lower: Percentages of GFP^+ MLL-AF9 mouse AIL cells in peripheral blood (PB), bone marrow (BM), spleen (SPL), and liver (LV) of mice transplanted with AML cells expressing B3-FL or B3delICD and injected with IgG or anti-LILRB3 #1 N297A (n=3 independent mice). (FIG. 7E) Overall survival of mice transplanted with indicated AML cells as above. (FIG. 7F) CFU assay of MLL-AF9 mouse AML cells expressing B3-FL or B3delICD in the presence of IgG or anti-LILRB3 #1 N297A (n=3 independent experiments) (FIG. 7G) Upper: Schematic of treatment. Recipient mice were injected with mouse IgG or anti-mCD8 to deplete CD8 T cells. Lower: Percentages of GFP^+ MLL-AF9 mouse AML cells in peripheral blood (PB), bone marrow (BM), spleen (SPL), and liver (LV) of mice transplanted with AML cells expressing B3-FL or B3delICD and injected with IgG or anti-LILRB3 #1 LALAPG (n=4 mice). (FIG. 7H) Survival of mice as in panel h (n=4 independent mice). (FIG. 7I) Upper: Schematic of treatment. Lower: Whole-body images of NSG mice transplanted with luciferase-expressing THP-1 cells and treated with IgG or anti-LILRB3 #1 N297A (#1NA). (FIG. 7J) Overall survival of the mice shown in panel h (n=3 independent mice). (FIG. 7K) Upper: Schematic of treatment. Lower: Whole-body images of NSG mice transplanted with luciferase-expressing Molm13 cells, injected with activated T cells, and treated with IgG or #1NA. (FIG. 7L) Luciferase signaling as a function of time in mice treated as described in panel k. (FIG. 7M) Overall survival of mice treated as described in panel k (n=3 independent mice). […] The data are presented as mean±s.e.m, and p values were calculated by two-tailed t-test except for FIG. 7E, FIG. 7H, FIG. 7J and FIG. 7M by log-rank test. […]"}, "Molm13 AML cells": {"test_system": "Molm13 AML cells", "assay": "NSG mice with Molm13 AML cells and activated human T cells", "from_the_text": "FIGS. 7A-N. Blocking anti-LILRB3 antibody prevents monocytic AML development. (FIG. 7A) Epitope binning of 30 high-affinity IgGs. (FIG. 7B) CFU assay of mouse MLL-AF9 AML cells in the presence of above IgGs (n=3 independent experiments). (FIG. 7C) Binding affinities of the two IgGs from bin #3. (FIG. 7D) Upper: Schematic of treatment. Lower: Percentages of GFP^+ MLL-AF9 mouse AIL cells in peripheral blood (PB), bone marrow (BM), spleen (SPL), and liver (LV) of mice transplanted with AML cells expressing B3-FL or B3delICD and injected with IgG or anti-LILRB3 #1 N297A (n=3 independent mice). (FIG. 7E) Overall survival of mice transplanted with indicated AML cells as above. (FIG. 7F) CFU assay of MLL-AF9 mouse AML cells expressing B3-FL or B3delICD in the presence of IgG or anti-LILRB3 #1 N297A (n=3 independent experiments) (FIG. 7G) Upper: Schematic of treatment. Recipient mice were injected with mouse IgG or anti-mCD8 to deplete CD8 T cells. Lower: Percentages of GFP^+ MLL-AF9 mouse AML cells in peripheral blood (PB), bone marrow (BM), spleen (SPL), and liver (LV) of mice transplanted with AML cells expressing B3-FL or B3delICD and injected with IgG or anti-LILRB3 #1 LALAPG (n=4 mice). (FIG. 7H) Survival of mice as in panel h (n=4 independent mice). (FIG. 7I) Upper: Schematic of treatment. Lower: Whole-body images of NSG mice transplanted with luciferase-expressing THP-1 cells and treated with IgG or anti-LILRB3 #1 N297A (#1NA). (FIG. 7J) Overall survival of the mice shown in panel h (n=3 independent mice). (FIG. 7K) Upper: Schematic of treatment. Lower: Whole-body images of NSG mice transplanted with luciferase-expressing Molm13 cells, injected with activated T cells, and treated with IgG or #1NA. (FIG. 7L) Luciferase signaling as a function of time in mice treated as described in panel k. (FIG. 7M) Overall survival of mice treated as described in panel k (n=3 independent mice). (FIG. 7N) Analyses of T cells in peripheral blood of mice treated as described in panel 1 at 22 days after Molm13 AML cell transplantation. Upper: Flow cytometry analyses. Lower: Plot of T cell percentages (n=3 independent mice). The data are presented as mean±s.e.m, and p values were calculated by two-tailed t-test except for FIG. 7E, FIG. 7H, FIG. 7J and FIG. 7M by log-rank test.\nMice. C57BL/6J and NOD-SCID IL2Rγ-null (NSG) mice were purchased from and maintained at the animal core facility of the University of Texas Southwestern Medical Center. GFP-specific TCR mice (Jedi mice, JAX lab stock No: 028062) were purchased from the Jackson Lab. C57BL/6J CD45.1 mice were injected intraperitoneally with 1×10^6 irradiated MLL-AF9 mouse AML cells (3000 cGy) and LPS or LPS alone as a control. The injection was repeated 10 days later. […]"}},
  "data": [
    {"molecule": "anti-LILRB3 #1 N297A: IgG #1 with Fc glycosylation N297A mutation, defective Fc-mediated effector functions (antibody, V domains shown) VH: EVQLVESGGGVVQPGRSLRLSCAASGFTFSSYGMHWVRQAPGKGLEWVAFIRYDGSNKYYADSVKGRFTISRDNSKNTLYLQMNSLRAEDTAVYYCAKAGFSGWYYYGMDVWGQGTMVTVSS VL: DIVMTQSPSSLSASVGDRLTITCRASQSISTYLNWYQQKPGKAPKLLIYGASSLQSGVPSRFSGSGSGTDFTLTISSLQPEDFATYFCQQSYGLPLTFGGGTKVDIK", "values": [
      {"measurement": "percentages of human autologous T cells", "setting": "[1]; NSG mice", "result": "increased the percentages of human autologous T cells"},
      {"measurement": "AML burden in peripheral blood, bone marrow, spleen, and liver", "setting": "[1]; versus IgG", "result": "significantly lower AML burden"},
      {"measurement": "survival", "setting": "[1]; versus control IgG", "result": "significant survival advantage"},
      {"measurement": "B3del ICD AML development", "setting": "[2]", "result": "no detectable difference"},
      {"measurement": "development of LILRB3-expressing (B3-FL) AML", "setting": "[2]", "result": "significantly delayed development of LILRB3-expressing AML"},
      {"measurement": "effect on mice without the injection of T cells", "setting": "Molm13 AML cells; no T cells", "result": "little effect"},
      {"measurement": "T cells in treated mice", "setting": "Molm13 AML cells; peripheral blood, 22 days after Molm13 transplantation, versus IgG", "result": "significantly more T cells"},
      {"measurement": "leukemia in one of the treated mice", "setting": "Molm13 AML cells; with activated human T cells", "result": "largely eliminated"},
      {"measurement": "leukemia progression", "setting": "Molm13 AML cells; with activated human T cells, antibody at day 8, versus IgG", "result": "significantly slower"}
    ]}
  ]
}
